Changes are numbered by the printed parent chain. In names and notes the source's numbering stands.
Tests used:
[1] = tested on: tRNA^Pyl; test: Aminoacylation assay of PylRS mutants / PylRS(c270); type: biochemical, Methanosarcina mazei
Method: The full length PylRS mutant was overexpressed in E. coli cells, and then purified using HisTrap column (Amersham Biosciences Inc.). Aminoacylation reaction was performed at ca. 37 degrees Celsius for 1 h. The reaction solution for aminoacylation comprises 2.83 μM of purified PylRS derived from M. mazei (or 9 μM of PylRS (c270)), 10 mM of MgCl2, 2 mM of ATP, 4 mM of DTT, 2.11 μM of transcript of M. mazei-derived tRNA^Pyl, and adequate amount of concentrated solution of a variety of amino acids dissolved in 100 mM of HEPES buffer (pH 7.2). Acid-urea polyacrylamide gel electrophoresis was used to analyze whether tRNA had been aminoacylated or not.

[2] = tested on: amber stop codon in the chloramphenicol acetyltransferase (CAT) gene, E. coli DH10B cells; test: Positive selection by suppression of amber stop codon in CAT gene (chloramphenicol resistance); type: cell-based
Method: The PylRS mutant library was first subjected to a positive selection based on suppression of an amber stop codon located at a nonessential position in the chloramphenicol acetyltransferase (CAT) gene. […] Then the surviving cells were grown in the presence of chloramphenicol and the absence of Boc-Lys.

B1: PylRS(c270) mutant (Y306A) (protein, UniProt Q8PWY1 185-454, looked up, variant Y306A)
chain: ASAPALTKSQTDRLEVLLNPKDEISLNSGKPFRELESELLSRRKKDLQQIYAEERENYLGKLEREITRFFVDRGFLEIKSPILIPLEYIERMGIDNDTELSKQIFRVDKNFCLRPMLAPNLANYLRKLDRALPDPIKIFEIGPCYRKESDGKEHLEEFTMLNFCQMGSGCTRENLESIITDFLNHLGIDFKIVGDSCMVYGDTLDVMHGDLELSSAVVGPIPLDREWGIDKPWIGAGFGLERLLKVKHDFKNIKRAARSESYYNGISTNL
[1]; substrate Z-Lys, compared with wild-type PylRS
  esterification of tRNA^Pyl with Z-Lys: much more efficiently than the wild-type PylRS

B2: PylRS(c270): M. mazei PylRS of which the 184 amino acids from the N terminus were truncated (protein, UniProt Q8PWY1 185-454, looked up, fragment)
chain: B1 chain with A122Y
[1]; substrate pyrrolysine
  aminoacylation activity with pyrrolysine: may esterify

B3: PylRS mutant (Y384F) (protein, UniProt Q8PWY1 1-454, looked up, variant Y384F)
Pyrrolysine--tRNA ligase: MDKKPLNTLISATGLWMSRTGTIHKIKHHEVSRSKIYIEMACGDHLVVNNSRSSRTARALRHHKYRKTCKRCRVSDEDLNKFLTKANEDQTSVKVKVVSAPTRTKKAMPKSVARAPKPLENTEAAQAQPSGSKFSPAIPVSTQESVSVPASVSTSISSISTGATASALVKGNTNPITSMSAPVQASAPALTKSQTDRLEVLLNPKDEISLNSGKPFRELESELLSRRKKDLQQIYAEERENYLGKLEREITRFFVDRGFLEIKSPILIPLEYIERMGIDNDTELSKQIFRVDKNFCLRPMLAPNLYNYLRKLDRALPDPIKIFEIGPCYRKESDGKEHLEEFTMLNFCQMGSGCTRENLESIITDFLNHLGIDFKIVGDSCMVFGDTLDVMHGDLELSSAVVGPIPLDREWGIDKPWIGAGFGLERLLKVKHDFKNIKRAARSESYYNGISTNL
[2]; in the absence of Boc-Lys
  concentration of chloramphenicol at which cells survived: less than 25 μg/ml
[2]; in the presence of Boc-Lys (1 mM)
  concentration of chloramphenicol at which cells survived: 150 µg/mL

From US9133449B2, “Mutant pyrrolysyl-tRNA synthetase, and method for production of protein having non-natural amino acid integrated therein by using the same” (priority 2007, dated 2015)
